Experimental findings from patent US20230127087, “GLYPICAN-3-SPECIFIC MODIFIED APTAMER AND USE THEREOF” (APTAMER SCIENCES INC., published 2023) are described below.

The target in data set [1] is T1, Glypican-3 (GPC3) (UniProt P51654 P51654:25-554). Nature of the data set: Kd similar to 12-10; GPC3-Cy5; value only in figure. The following applies: label: 5' Cy5 (cell assays).
For data set [2], the target named is T1, Glypican-3 (GPC3). Put plainly: filter; gemcitabine in loop; values only in figure.
The target of data set [3] is T1, Glypican-3 (GPC3). Put plainly: filter; gemcitabine at 3' end; values only in figure.

T1 sequence (P51654 25-554, one chain of several): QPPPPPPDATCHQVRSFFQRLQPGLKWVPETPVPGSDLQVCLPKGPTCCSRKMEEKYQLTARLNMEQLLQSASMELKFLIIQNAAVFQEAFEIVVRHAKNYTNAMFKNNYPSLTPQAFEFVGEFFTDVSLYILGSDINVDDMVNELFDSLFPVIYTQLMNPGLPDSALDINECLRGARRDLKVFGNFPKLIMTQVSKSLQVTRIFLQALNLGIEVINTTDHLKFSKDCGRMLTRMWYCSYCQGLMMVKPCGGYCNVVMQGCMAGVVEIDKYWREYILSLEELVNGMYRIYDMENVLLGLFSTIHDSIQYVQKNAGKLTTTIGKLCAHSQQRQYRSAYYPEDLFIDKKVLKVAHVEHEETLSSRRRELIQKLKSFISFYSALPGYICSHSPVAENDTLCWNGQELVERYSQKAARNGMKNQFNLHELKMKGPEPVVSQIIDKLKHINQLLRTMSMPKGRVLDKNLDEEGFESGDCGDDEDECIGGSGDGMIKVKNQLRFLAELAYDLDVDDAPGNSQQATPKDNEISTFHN

Turning to GTGAATGCGTTGAATTATGTCCCTTCAGTCATCAC (ssDNA, n = BzdU; 3' idT) [12-12], in the data set with Glypican-3 (GPC3) [1], the binding result is “binds”.

B1: 12-10 G(2)L (ssDNA)
DNA: GGGAAGTGAATGCGTTGAATTATGTCCCTTCAGTCATCAC
modifications: n = BzdU; S = gemcitabine [BzdU (T) at 7,11,15,16,20,21,23,25,29,30,34,37; gemcitabine (C) at 26,27]
For B1, the binding result with Glypican-3 (GPC3) [2] is “binds”.

B2: 12-10 G(2)3' (ssDNA)
DNA: GGGAAGTGAATGCGTTGAATTATGTCCCTTCAGTCATCACCA
modifications: n = BzdU; S = gemcitabine [BzdU (T) at 7,11,15,16,20,21,23,25,29,30,34,37; gemcitabine (C) at 40,41]
With B2, the binding result with Glypican-3 (GPC3) [3] was “binds”.
